From patent publication US20210261685A1 (Alector, published 2021)
Numbering of substitutions follows the chain as printed.

T1: murine MerTK extracellular domain (ECD), recombinant (mouse, UniProt Q60805 19-497)
T1 construct: also called moMerTK; mouse MerTK; not shown: polyHis tag or TEVS/Thrombin/murine IgG2a Fc tag
T1 sequence: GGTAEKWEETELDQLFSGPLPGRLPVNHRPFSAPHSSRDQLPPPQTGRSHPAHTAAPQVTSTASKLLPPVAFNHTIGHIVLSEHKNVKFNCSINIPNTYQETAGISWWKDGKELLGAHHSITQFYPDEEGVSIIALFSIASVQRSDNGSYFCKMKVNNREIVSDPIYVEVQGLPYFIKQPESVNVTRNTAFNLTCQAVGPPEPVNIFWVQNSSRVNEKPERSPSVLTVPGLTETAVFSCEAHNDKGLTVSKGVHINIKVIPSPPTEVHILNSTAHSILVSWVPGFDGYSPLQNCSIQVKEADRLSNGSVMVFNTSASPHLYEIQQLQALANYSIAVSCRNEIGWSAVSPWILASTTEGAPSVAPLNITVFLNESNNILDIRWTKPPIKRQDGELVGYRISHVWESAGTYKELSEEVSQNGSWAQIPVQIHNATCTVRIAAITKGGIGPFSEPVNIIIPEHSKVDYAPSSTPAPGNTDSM

T2: cyno MerTK extracellular domain (ECD), recombinant (cynomolgus monkey, UniProt Q12866 21-505 (human entry))
T2 construct: also called cynomolgus MerTK; not shown: polyHis tag or TEVS/Thrombin/murine IgG2a Fc tag
T2 chain: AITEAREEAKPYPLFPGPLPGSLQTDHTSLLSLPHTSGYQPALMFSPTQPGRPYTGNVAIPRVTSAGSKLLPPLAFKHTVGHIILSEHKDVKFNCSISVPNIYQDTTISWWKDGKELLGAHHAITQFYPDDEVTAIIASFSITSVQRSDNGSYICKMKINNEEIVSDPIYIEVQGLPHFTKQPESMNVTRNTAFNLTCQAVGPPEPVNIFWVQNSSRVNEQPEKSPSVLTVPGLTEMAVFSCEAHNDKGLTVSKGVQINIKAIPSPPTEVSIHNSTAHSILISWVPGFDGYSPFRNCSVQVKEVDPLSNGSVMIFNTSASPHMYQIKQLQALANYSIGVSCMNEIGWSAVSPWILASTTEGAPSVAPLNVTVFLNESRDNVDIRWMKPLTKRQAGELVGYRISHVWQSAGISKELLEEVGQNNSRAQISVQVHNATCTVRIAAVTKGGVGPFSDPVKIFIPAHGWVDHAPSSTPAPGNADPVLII

T3: human MerTK extracellular domain (ECD), recombinant (human, UniProt Q12866 21-505)
T3 construct: also called huMerTK; not shown: polyHis tag or TEVS/Thrombin/murine IgG2a Fc tag
T3 sequence: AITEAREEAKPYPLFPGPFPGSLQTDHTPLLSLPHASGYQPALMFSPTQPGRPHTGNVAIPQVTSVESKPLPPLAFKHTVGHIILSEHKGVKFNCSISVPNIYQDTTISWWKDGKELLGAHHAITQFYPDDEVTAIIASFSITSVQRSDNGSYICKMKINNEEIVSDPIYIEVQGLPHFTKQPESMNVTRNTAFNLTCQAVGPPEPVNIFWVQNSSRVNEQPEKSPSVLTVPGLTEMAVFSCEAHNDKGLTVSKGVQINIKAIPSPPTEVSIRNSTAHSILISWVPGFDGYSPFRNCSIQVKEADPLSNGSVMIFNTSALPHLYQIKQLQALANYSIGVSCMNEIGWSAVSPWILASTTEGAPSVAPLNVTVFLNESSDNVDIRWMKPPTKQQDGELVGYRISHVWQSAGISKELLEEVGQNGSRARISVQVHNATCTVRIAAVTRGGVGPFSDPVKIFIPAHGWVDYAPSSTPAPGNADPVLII

B1: MTK-16.1 (antibody, V domains shown)
VH: QVQLVQSGSELKKPGASVKVSCKASGYTFTNHGMNWVRQAPGQGLEWMGWINTYTGEPTYAQGFTGRFVFSLDTSVSTAYLQISSLKAEDTAVYYCARKGVTAARYFDYWGQGTLVTVSS
VL: DIQMTQSPSSLSASVGDRVTITCKASQNVRTAVAWYQQKPGKAPKRLIYLASNRHTGVPSRFSGSGSGTEFTLTISNLQPEDFATYYCLQHWNYPLTFGGGTKVEIK
B2: MTK-16.2 (antibody, V domains shown)
VH: B1 VH with Q62D, G63D, T65K
VL: B1 VL with K24R, V104L
B3: MTK-29.8 (antibody, human IgG1, V domains shown)
VH: QVQLVQSGSELKKPGASVKVSCKASGYIFTTYGLSWVRQAPGQGLEWMGWINTYSGVPTYTDDFKGRFVFSLDTNVSTAYLQISSLKAEDTAVYYCARYTNYGVFDYWGQGTLVTVSS
VL: DIQLTQSPSFLSASVGDRVTITCRASSSVGYMHWYQQKPGKAPKLLIYATSNLAQGVPSRFSGSGSGTEFTLTISSLQPEDFATYYCQQWGSLPFTFGQGTKLEIK
B4: MTK-29.7 (antibody, human IgG1, V domains shown)
VH: B3 VH with G26S, I28T, L34M, T59S, G66A, N75S
VL: B3 VL
B5: MTK-29.5 (antibody, human IgG1, V domains shown)
VH: B3 VH with T31S, N75S, S85P
VL: B3 VL
B6: MTK-29.9 (antibody, human IgG1, V domains shown)
VH: B3 VH with T31S, N75S
VL: B3 VL with E69G
B7: MTK-29.13 (antibody, human IgG1, V domains shown)
VH: B3 VH with G26S, I28T, L34M, Y54A, N75S
VL: B3 VL with K38E
B8: MTK-29.12 (antibody, human IgG1, V domains shown)
VH: B3 VH with G26S, I28T, L34M, Y54M, N75S
VL: B3 VL with S9G
B9: MTK-29.14 (antibody, human IgG1, V domains shown)
VH: B3 VH with G26S, I28T, L34M, T59S, G66A, N75S
VL: B3 VL with S75F
B10: MTK-15.4 (antibody, human IgG1, V domains shown)
VH: QVQLVQSGSELKKPGASVKVSCKASGYTFTNYGVHWVRQAPGQGLEWMGWINTYTGEPTYAQGFTGRFVFSLDTSVSTAYLQISSLKAEDTAVYYCARGNRYAYMDYWGQGTLVTVSS
VL: EIVLTQSPATLSLSPGERATLSCRASSSVGYMHWYQQKPGQAPRPLIYATSNLASGIPARFSGSGSGTSYTLTISSLEPEDFAVYYCQQWSSNPRTFGGGTKVEIK
B11: MTK-15.2 (antibody, human IgG1, V domains shown)
VH: B10 VH with I51G
VL: B10 VL with G30S
B12: MTK-15.13 (antibody, human IgG1, V domains shown)
VH: B10 VH with M105E
VL: B10 VL with G30Q
B13: MTK-15.7 (antibody, human IgG1, V domains shown)
VH: B10 VH with A97V
VL: B10 VL with S28G, G30S
B14: MTK-15.5 (antibody, human IgG1, V domains shown)
VH: B10 VH with A97T, N100T
VL: B10 VL
B15: MTK-15.8 (antibody, human IgG1, V domains shown)
VH: B10 VH with N100V
VL: B10 VL with L77P
B16: MTK-15.11 (antibody, human IgG1, V domains shown)
VH: B10 VH with T30A, T55E, M105Q
VL: B10 VL with G30S
B17: MTK-15.12 (antibody, human IgG1, V domains shown)
VH: B10 VH with T30A, T55Q, N100V
VL: B10 VL with L77P
B18: MTK-15.10 (antibody, human IgG1, V domains shown)
VH: B10 VH with T30A, T55Q, A97T, N100A
VL: B10 VL
B19: MTK-15.3 (antibody, human IgG1, V domains shown)
VH: B10 VH
VL: B10 VL with S28H, G30S
B20: MTK-15.9 (antibody, human IgG1, V domains shown)
VH: B10 VH with N100Y
VL: B10 VL with V29T, G30S
B21: MTK-15.1 (antibody, human IgG1, V domains shown)
VH: B10 VH with M105Q
VL: B10 VL with G30S
B22: MTK-15.6 (antibody, human IgG1, V domains shown)
VH: B10 VH with T59Y
VL: B10 VL

What follows are binders tested against T1, murine MerTK extracellular domain … (assay: SPR, Carterra LSA, antibody immobilised).
Method: (§1) Binding kinetics of humanized and affinity-matured anti-MerTK antibodies of the present disclosure to human, murine, and cynomolgus MerTK proteins were evaluated as follows. Briefly, anti-MerTK antibodies were prepared by diluting to 10 μg/ml in 10 mM Acetate, pH 4.25 (Carterra, Salt Lake City, Utah), at 300 μl/well. A HC200M sensor chip (Carterra) was activated using the single channel flow cell with a 7-minute injection of a 1:1:1 mixture of 100 mM MES pH 5.5, 100 mM sulfo-NHS, 400 mM EDC (all reconstituted in MES pH 5.5; 100 μl of each mixed in vial immediately before running assay). After switching to the multi-channel array flow cell, the antibodies were injected over the activated chip in a 96-spot array for 15 minutes. The remaining unconjugated active groups on the chip were then blocked by injecting 1M Ethanolamine pH 8.5 (Carterra) for 7 minutes using the single channel flow cell.
(§2) Estimates of affinity were generated by injecting each analyte over the entire antibody array using the single channel flow cell. MerTK analytes were diluted to 33.3, 100, and 300 nM in running buffer, and injected in serial from lowest to highest concentration without regeneration. Two buffer blanks were run between each series (one species per series). Data were processed and analyzed using NextGenKIT high-throughput kinetics analysis software (Carterra). In these experiments, the anti-MerTK antibodies were human IgG1 isotype containing the Fc variant LALAPS.
(§3) The equilibrium dissociation constants (KD) were then calculated from the fitted association and dissociation rate constants (k-on and k-off) for anti-MerTK antibodies of the present disclosure.

Binder | binding result | Kd
B1 | no binding (tested: 300 nM) | –
B2 | no binding (tested: 300 nM) | –
B3 | – | 310 nM
B4 | – | 95 nM
B5 | – | 135 nM
B6 | – | 140 nM
B7 | – | 170 nM
B8 | – | 250 nM
B9 | – | 100 nM
B10 | no binding (tested: 300 nM) | –
B11 | no binding (tested: 300 nM) | –
B12 | – | 130 nM
B13 | – | 705 nM
B14 | – | 690 nM
B15 | no binding (tested: 300 nM) | –
B16 | – | 140 nM
B17 | – | 114 nM
B18 | – | 2800 nM
B19 | no binding (tested: 300 nM) | –
B20 | – | 850 nM

Target: T2, cyno MerTK extracellular domain (ECD), …
Test: SPR, Carterra LSA, antibody immobilised
Method: as §1, §2, §3

Binder | Kd
B1 | 170 nM
B2 | 160 nM
B3 | 22.5 nM
B4 | 3.2 nM
B5 | 4.4 nM
B6 | 5.8 nM
B7 | 11 nM
B8 | 21 nM
B9 | 7.3 nM
B11 | 21.5 nM
B12 | 2.8 nM
B21 | 8 nM
B13 | 0.3 nM
B14 | 0.8 nM
B15 | 5 nM
B16 | 12.5 nM
B17 | 18 nM
B22 | 1.5 nM
B18 | 3.3 nM
B19 | 23 nM
B20 | 11.5 nM

What follows are binders tested against T3, human MerTK extracellular domain (ECD), … (assay: SPR, Carterra LSA, antibody immobilised).
Method: as §1, §2, §3

Binder | Kd
B1 | 86 nM
B2 | 80 nM
B3 | 23 nM
B4 | 3.6 nM
B5 | 4.4 nM
B6 | 5.7 nM
B7 | 13 nM
B8 | 23 nM
B9 | 7.6 nM
B11 | 21.5 nM
B12 | 2.3 nM
B21 | 8.3 nM
B13 | 0.1 nM
B14 | 0.1 nM
B15 | 4.9 nM
B16 | 12.5 nM
B17 | 17.5 nM
B22 | 1 nM
B18 | 3.3 nM
B19 | 21.5 nM
B20 | 10 nM
